Assay results: patent US20100322948A1, “Bone morphogenetic protein (BMP)-binding domains of proteins of the repulsive guidance molecule (RGM) protein family and functional fragments thereof, and use of same” (ABBOTT GMBH & CO. KG, priority 2007, published 2010)
“Also recorded” adds a separate entry of the source.

Columns and labels:
BMP-4 = target: T1, BMP-4 (Homo sapiens, UniProt P12644); test: In vitro interaction test, variant B: immobilized RGMA-Fc fusion proteins, detection of BMP-4 binding
T1 construct: purchased R&D Systems 314-BM
T1 sequence (P12644 293-408): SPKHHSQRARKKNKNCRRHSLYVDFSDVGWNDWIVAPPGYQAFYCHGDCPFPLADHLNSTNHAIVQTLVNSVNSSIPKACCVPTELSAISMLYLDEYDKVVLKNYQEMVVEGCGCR
Description: (§1) Test Method 4: In Vitro Interaction Test for Determining the Interaction between RGMA and BMP-2 and -4
(§2) The interaction tests were carried out as described below:
(§3) Variant B: Immobilization of Various RGMA-Fc Fusion Proteins and Detection of the Binding of the BMP-2/ or -4 Protein
(§4) Immunoplate Cert. MaxiSorp F96 (Nunc, 439454)
(§5) RGMA-Fc fragments • Volume used: 2.5 μg/mL in Na2CO3; addition: 50 μL per well • 1 hour at 37° C. in damp chamber
(§6) 3. Washing step: • Wash 3× with PBS/0.02% Tween 20
(§7) 4. Blocking: • 3% BSA in PBS/0.02% Tween, 1 hour at 37° C. in damp chamber • Addition : 200 μL per well, incubation: 1 hour at 37° C. in damp chamber
(§8) Recombinant human BMP-2, Catalog No.: 355-BM, Company: R&D Systems; or
(§9) Recombinant human RGM A, R&D Systems; Prod. #2495-RM,
(§10) recombinant human BMP-4, Catalog No.: 314-BM, Company: R&D Systems;
(§11) Concentration in each case: 10 μg/mL
(§12) Dilution steps: in each case 1:2 with PBS/0.02% Tween 20
(§13) 6. Washing step: • Wash 3× with PBS/0.02% Tween 20
(§14) Anti-human BMP-4 biotin antibody; Catalog No.: BAM7572, 1:200 in 1% BSA-PBS-T
(§15) 8. Washing step: • Wash 3× with PBS/0.02% Tween 20
10. Washing step: • Wash 3× with PBS/0.02% Tween 20
ImmunoPure TMB substrate kit; (Pierce, #34021) • Development period: approximately 1-30 minutes • 1:1 mixture of […]; addition: 50 μL per well
12. Stop: • 2.5 M H2SO4; addition: 50 μL per well
The test was conducted according to test method 4, variant B above, with immobilization of the fusion proteins (1 mg/mL). The binding of BMP-4 was detected using anti-BMP-4 biotin antibodies.
(§16) The test was conducted according to test method 4, variant B above, with immobilization of the fusion proteins (1 mg/mL). The binding of BMP-4 and -2 was detected using anti-BMP-4 and anti-BMP-2 biotin antibodies, respectively.

BMP-2 = target: T2, BMP-2 (Homo sapiens, UniProt P12643); test: In vitro interaction test, variant B: immobilized RGMA-Fc fusion proteins, detection of BMP-2 binding; conditions: Working Example 2, FIG. 4, anti-BMP-2 biotin antibodies
T2 construct: purchased R&D Systems 355-BM; host or cells: CHO cells (said of #355-BM in the BRE-Luc section)
T2 sequence (P12643 283-396): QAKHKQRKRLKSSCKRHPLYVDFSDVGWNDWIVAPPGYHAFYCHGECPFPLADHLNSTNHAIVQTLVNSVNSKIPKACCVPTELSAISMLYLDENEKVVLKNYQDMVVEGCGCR
Description: as §1, §2, §3, §4, §5, §6, §7, §8, §9, §10, §11, §12, §13, §14, §15
10. Washing step: • Wash 3× with PBS/0.02% Tween 20 […]
as §16

NTera-2 cells = test: Neurite growth test using NTera-2 cells (test method 2); type: cell-based, human; conditions: FIG. 7B
From the text: Test Method 2: Illustration of the Effect of RGM Peptides in the Neurite Growth Test, Using NTera-2 Cells
The human pluripotent cancer cell line NTera2 (DSMZ ACC527) is established as a cell culture model. Neurites grow from cell aggregates and form a corona of neurites around the particular aggregate.
NTera-2 cells are human embryonic teratocarcinoma cells. A carcinoma is a cancerous tumor, whereas a teratoma or teratocarcinoma is a mixed tumor of the germ cells composed of various differentiated and undifferentiated tissues, and therefore, the same as for the SH-SY5Y culture, comprises a heterogeneous population. The tumor is usually present in an encapsulated form in the various types, such as hair, skin, teeth, muscle, and nerve tissue. The tumors typically originate in the ovaries, testes, abdominal cavity, or brain. The cell line was cloned from the Tera-2 line, obtained from a metastatic teratocarcinoma in a person.
NTera-2 cells are epithelial, adherently growing cells which form a monolayer. Due to the large number of granular particles which they contain, NTera-2 cells may be easily differentiated from the other cells. The cells were cultivated by 1:5 splitting twice a week. The cells of this mixed culture may be differentiated using retinoic acid in neuronal cells.
Culture Medium Fur Growth […]
In order to differentiate the cells it was necessary to introduce antibiotic into the culture medium of the cell line due to the fact that the cells remained in the same culture flask for three weeks. Previously, the undifferentiated culture had been detrypsinated and the cell count determined using a Neubauer counting chamber. […] 25 μL retinoic acid (10 μM) was readded to the medium under dim light conditions. […]
The culture was stored in an incubator at 37° C. with 5% CO2 gassing, and the medium was changed at the beginning and at the end of the week. […] After three weeks the cells were differentiated and were ready for use in experiments. […]
Different plate formats were used for the tests. For the isolation of protein, 6-well plates were necessary for recovering a sufficient quantity. […]

B1: fragment #786: Fc fusion protein of human RGM A amino acids 47-168 (protein)
chain: PCKILKCNSEFWSATSGSHAPASDDTPEFCAALRSYALCTRRTARTCRGDLAYHSAVHGIEDLMSQHNCSKDGPTSQPRLRTLPPAGDSQERSDSPEICHYEKSFHKHSATPNYTHCGLFGD
modifications: left off: small tags and cut ends; a dimerising Fc or GST
Question: For B1, which “binding of BMP-4” value (BMP-4; Working Example 1, FIG. 3, anti-BMP-4 biotin antibodies) is on record?
Answer: The value was “more significant binding”.

Question: What about the “binding of BMP-4” value (BMP-4; Working Example 2, FIG. 4, anti-BMP-4 biotin antibodies) of the same molecule?
Answer: The value was “more significant binding”.

Question: And the “binding of BMP-2” value (BMP-2)?
Answer: Its value is “more significant binding”.

Question: What about the “inhibition of neurite growth” value (NTera-2 cells) of the same molecule?
Answer: The value was “inhibit the neurite growth”.

Question: And the “inhibitory activity in neurite growth test compared with 316-386-Fc” value (NTera-2 cells; listed as 47-168-Fc)?
Answer: The value was “much stronger effect; also recorded: significantly higher activity”.
